B1: MurD (Acinetobacter baumannii ATCC 17978) (protein)
chain: MLIQRGGLKVVAGLGISGVSAVNFLHEQGYQVAVTDSRPTPPGHDQIPAGVKTSFGQLDQELLLQAEEIILSPGLAPQLPEIQAAIAKGISVVGDIQLLRRATDVPIVAITGSNAKSTVTTLIGLMAKDAGKKVAVGGNLGRPALDLLKDQPELLVLELSSFQLETTSHLNAEVAVVLNMSEDHLDRHGNMLGYHQAKHRIFQGAKKVVFNRDDALSRPLVPDTTPMQSFGLNAPDLNQYGVLRDADGTLWLACGLQRLIKSSDLYIQGMHNVANALACLALGEAIGLPMESMLETLKQFKGLEHRCEYVKTVHDVRYYNDSKGTNVGATLAAIDGLGAAIEVKKGKVALILGGQGKGQDFSPLRSSIEKYAKVVVLIGEDAPVIEQAIQGATKILHAATLKEAVELCQRETQAEDVVLLSPACASFDMFKSYNDRGQQFVACVNSLV
notes: full length, N-terminal 6xHis tag removed by TEV protease, E. coli BL21(DE3)
B2: MigC (A1S_0934) (Acinetobacter baumannii) (protein)
chain: MKLIAQKTVPTHIISGFLGAGKTTLLQHLLSQKPKDEVWAVLMNEFGQIGVDQQLLPQDQGYAVKELLGGCLCCSSQLPMHIALARLLSEQKPDRLFIEPTGLGHPSQLFDQLTEPHWQNSLAMRALVTVVDGSRLHDTNWVKQNLYEDQLKAAQIVVVSHADTMTFEDEQALVELKEEYQPYQQQWLKTEHGQLELAQIDVPARLTERSIQPLLKLQKQMTEAEVVKEIHQLPYHYVETAQGYMVAGWKFPKRWKFEFYALLDVLCAQQDWLRIKGIFNTDQGWKTFNFNPEQFNYKSGEEGIDNRIEMISQHEHDWLAFETELLACRIEQ
notes: pre-loaded with 1 equivalent Zn; UniProt ID is the one representing MigC in a homologue alignment and may be from another strain

How the values were obtained:
Assay type in all cases: biochemical, Acinetobacter baumannii
[1] = substrate: Nc1ncnc2c1ncn2[C@@H]1O[C@H](COP(=O)(O)OP(=O)(O)OP(=O)(O)O)[C@@H](O)[C@H]1O; experiment: HPLC of UMAG formation; details: 200 µM UMA, 1 mM D-glutamate, 2 mM MgCl2, 500 µM GTP, BSA added (no MigC), pH 7.4, 37 °C
[2] = substrate: Nc1ncnc2c1ncn2[C@@H]1O[C@H](COP(=O)(O)OP(=O)(O)OP(=O)(O)O)[C@@H](O)[C@H]1O; experiment: malachite green phosphate release; details: Zn-bound MigC (1 equivalent Zn), 2 mM MgCl2, 150 mM KCl, pH 7.4, 37 °C
[3] = substrate: Nc1nc2c(ncn2[C@@H]2O[C@H](COP(=O)(O)OP(=O)(O)OP(=O)(O)O)[C@@H](O)[C@H]2O)c(=O)[nH]1; experiment: malachite green phosphate release; details: Zn-bound MigC (1 equivalent Zn), 2 mM MgCl2, 150 mM KCl, pH 7.4, 37 °C

| Protein | Km [1] [µM] | Km [2] [µM] | Km [3] [µM] |
| --- | --- | --- | --- |
| B1 | 149 ± 25 |  |  |
| B2 |  | 51.1 ± 12 | 110 ± 14 |
